Data as given in PMC9770967, “Native holdup (nHU) to measure binding affinities from cell extracts” (Science Advances, 2022).

Key:
SNX27_PDZ [1] = experiment: nHU-MS, SNX27_PDZ bait, total Jurkat extracts, series 1; assay type: binding, human; settings: Jurkat, series 1; for BI_HU / FC_HU (log2 fold change) / Ratio_HU: n = 6; for pKapp_significant_binders_HU: apparent, Eq. 2, significant binders (1 σ, P < 0.05)
Description: The empty His6-AviTag-MBP-TEV vector was used to produce biotinylated MBP for control experiments. Proteins were coexpressed with BirA biotin ligase (PET21a-BirA, Addgene, no. 20857) in Escherichia coli BL21(DE3) cells. At isopropyl-β-D-thiogalactopyranoside (IPTG) induction (1 mM IPTG at 18°C overnight), 50 μM biotin was added to the media. Harvested cells were lysed in a buffer containing 50 mM tris (pH 7.5), 150 to 300 mM NaCl, 50 μM biotin, 2 mM β-mercaptoethanol, cOmplete EDTA-free protease inhibitor cocktail (Roche, Basel, Switzerland), 1% Triton X-100, and trace amount of deoxyribonuclease, ribonuclease, and lysozyme. Lysates were frozen at −20°C before further purification steps. Lysates were sonicated and centrifuged for clarification. Expressed proteins were captured on in-house prepacked Ni-IDA (Protino Ni-IDA Resin, Macherey-Nagel, Duren, Germany) columns and were washed with at least 10 column volumes of cold wash buffer [50 mM tris (pH 7.5), 150 mM NaCl, and 2 mM β-mercaptoethanol] before elution with 250 mM imidazole. The Ni elution was collected directly on a preequilibrated amylose column (amylose high flow resin, New England Biolabs, Ipswich, MA). Amylose column was washed with 5 column volumes of cold wash buffer before fractionated elution in a buffer containing 25 mM Hepes (pH 7.5), 150 mM NaCl, 1 mM TCEP, 10% glycerol, 5 mM maltose, and cOmplete EDTA-free protease inhibitor cocktail. The concentration of proteins was determined by their ultraviolet absorption at 280 nm before aliquots were snap-frozen in liquid nitrogen and stored at −80°C.
For saturating streptavidin resin with biotinylated peptides or biotin, 50 μl of streptavidin resin was mixed with biotin or peptide at 40 to 60 μM concentration in 6 to 6.5 resin volume for 60 min. To saturate streptavidin resin with biotinylated proteins, 50 μl of streptavidin resin (Streptavidin Sepharose High Performance, Cytiva) was mixed with biotinylated MBP or MBP-PDZ at 40 to 50 μM concentration in 20× resin volume for 60 min. After saturation, resins were washed a single time [10 resin volume, holdup buffer: 50 mM tris (pH 7.5), 300 mM NaCl, and 1 mM TCEP, 0.22-μm filtered] and were depleted with biotin (10 resin volume, 10 min, holdup buffer supplemented with 100 μM biotin). Last, resins were washed two times (10 resin volume, holdup buffer).
For single-point nHU experiments carried out at ~10 μM bait concentration, 50 μl of saturated streptavidin resin was mixed with 200 μl of cell lysate (2 mg/ml). Titration experiments were carried out by mixing control and bait-saturated resin and keeping the total resin volume constant; e.g., ~5 μM bait concentration can be achieved by mixing 25 μl of bait-saturated streptavidin resin with 25 μl of control resin and 200 μl of cell lysate (2 mg/ml). Control and bait-saturated resins were prepared in larger amounts, and a serial dilution was prepared with these presaturated resins to achieve different resin ratios.
Unless specified elswhere, the nHU mixture was incubated at 4°C for 2 hours. After the incubation ended, the resin was separated from the supernatant by a brief centrifugation (15 s, 2000 g). Then, half of the supernatant was removed by pipetting without any delay to avoid any resin contamination; e.g., 100 μl of supernatant is collected if 200 μl of cell lysate was used as analyte. Alternatively, the supernatant can be centrifuged an additional time to clarify it further, removing any possible resin contamination. In principle, the separation of the supernatant should be as fast as possible since any delay can perturb the equilibrium. […] Alternatively, the resin can be separated from the supernatant using filter plates (e.g., various products of Millipore, Burlington, MA) or spin columns (e.g., Pierce spin cups—cellulose acetate filter from Thermo Fisher Scientific, Waltham, MA) to achieve faster separation. […]

SNX27_PDZ [2] = experiment: AP-MS control pull-down on leftover resin, SNX27_PDZ bait, total Jurkat extracts; assay type: binding, human; settings: Jurkat, series 1; leftover resin; n = 6
Description: Leftover beads from nHU-MS experiments were washed three times immediately after the separation of the supernatant [10 resin volume in buffer containing 50 mM tris (pH 8.5), 150 mM NaCl, 1% Triton X-100, 10× cOmplete EDTA-free protease inhibitor cocktail, 2 mM EDTA, and 1 mM TCEP]. Then, the beads were washed two times [10 resin volume buffer containing 50 mM tris (pH 8.5), 150 mM NaCl, and 1 mM TCEP]. Last, captured protein was eluted from the resin in two steps, and the eluted fractions were pooled. For each elution, the beads were incubated for 30 min with three resin volume buffer containing 20 mM tris (pH 8.5), 100 mM NaCl, 500 μM TCEP, and 8 M urea. Between each step, the beads were separated by mild centrifugation, and the supernatant was removed by gentle pipetting.
The nHU samples were precipitated with trichloroacetic acid (TCA) 20% overnight at 4°C and centrifuged at 14,000 rpm for 10 min at 4°C. The protein pellets were washed twice with 1 ml of cold acetone and air-dried. The protein extracts were solubilized in 8 M urea, reduced with 5 mM TCEP for 30 min, and alkylated with 10 mM iodoacetamide for 30 min in the dark. Double digestion was performed at 37°C with 500 ng of endoproteinase Lys-C (Wako, Richmond, USA) for 4 hours, followed by fourfold dilution and an overnight digestion with 500 ng of trypsin (Promega, Charbonnieres les Bains, France). Peptide mixtures were then desalted on a C18 spin-column and dried on a speed vacuum.
Samples were analyzed using an Ultimate 3000 nano-RSLC coupled in line via a nano-electrospray ionization source, with an LTQ-Orbitrap ELITE mass spectrometer (Thermo Fisher Scientific, San Jose, CA) or with the Orbitrap Exploris 480 mass spectrometer (Thermo Fisher Scientific, Bremen, Germany) equipped with a high field asymmetric ion mobility spectrometry (FAIMS) module. Peptide mixtures were injected in 0.1% trifluoroacetic acid on a C18 Acclaim PepMap100 trap column [75 μm inner diameter (ID) × 2 cm, 3 μm, 100 Å, Thermo Fisher Scientific] for 3 min at 5 μl/min with 2% acetonitrile (ACN) and 0.1% formic acid (FA) in H2O and then separated on a C18 Acclaim PepMap100 nano-column (75 μm ID × 50 cm, 2.6 μm, 150 Å, Thermo Fisher Scientific) at 300 nl/min and 40°C with a 90-min linear gradient from 5 to 30% buffer B (A: 0.1% FA in H2O/B: 80% ACN, 0.1% FA in H2O) and regeneration at 5% B. Spray voltage was set to 2.1 kV and heated capillary temperature was set to 280°C.
For the Orbitrap Elite, the mass spectrometer was operated in positive ionization mode in data-dependent mode with survey scans from mass/charge ratio (m/z) 350 to 1500 acquired in the Orbitrap at a resolution of 120,000 at m/z 400. The 20 most intense peaks from survey scans were selected for further fragmentation in the linear ion trap with an isolation window of 2.0 Da and were fragmented by collision-induced dissociation (CID) with a normalized collision energy of 35% (TOP 20 CID method). Unassigned and single-charged states were excluded from fragmentation. The ion target value for the survey scans (in the Orbitrap) and the MS2 mode (in the linear ion trap) were set to 1E6 and 5E3, respectively, and the maximum injection time was set to 100 ms for both scan modes. Dynamic exclusion was set to 20 s after one repeat count with mass width at ±10 parts per million (ppm).
Proteins were identified by database search using SequestHT (Thermo Fisher Scientific) with Proteome Discoverer 2.4 software (PD2.4, Thermo Fisher Scientific) on the human FASTA database downloaded from UniProt (reviewed, release 2021_06_03, 20380 entries, https://uniprot.org/, complemented with sequences of likely contaminants, such as MBP, streptavidin, or trypsin). Precursor and fragment mass tolerances were set at 7 ppm and 0.6 Da, respectively, and up to two missed cleavages were allowed. […]

pKapp_significant_binders_HU (SNX27_PDZ [1])	Molecule	BI_HU (SNX27_PDZ [1])	FC_HU (log2 fold change) (SNX27_PDZ [1])	Ratio_HU (SNX27_PDZ [1])	FC_AP (log2 fold change) (SNX27_PDZ [2])	Ratio_AP (SNX27_PDZ [2])
4.691	ARHGEF6: Rho guanine nucleotide exchange factor 6 (protein, UniProt Q15052 1-776, looked up) Rho guanine nucleotide …: MNPEEQIVTWLISLGVLESPKKTICDPEEFLKSSLKNGVVLCKLINRLMPGSVEKFCLDPQTEADCINNINDFLKGCATLQVEIFDPDDLYSGVNFSKVLSTLLAVNKATEDQLSERPCGRSSSLSAANTSQTNPQGAVSSTVSGLQRQSKTVEMTENGSHQLIVKARFNFKQTNEDELSVCKGDIIYVTRVEEGGWWEGTLNGRTGWFPSNYVREIKSSERPLSPKAVKGFETAPLTKNYYTVVLQNILDTEKEYAKELQSLLVTYLRPLQSNNNLSTVEVTSLLGNFEEVCTFQQTLCQALEECSKFPENQHKVGGCLLSLMPHFKSMYLAYCANHPSAVNVLTQHSDELEQFMENQGASSPGILILTTNLSKPFMRLEKYVTLLQELERHMEDTHPDHQDILKAIVAFKTLMGQCQDLRKRKQLELQILSEPIQAWEGEDIKNLGNVIFMSQVMVQYGACEEKEERYLMLFSNVLIMLSASPRMSGFIYQGKIPIAGTVVTRLDEIEGNDCTFEITGNTVERIVVHCNNNQDFQEWLEQLNRLIRGPASCSSLSKTSSSSCSAHSSFSSTGQPRGPLEPPQIIKPWSLSCLRPAPPLRPSAALGYKERMSYILKESSKSPKTMKKFLHKRKTERKPSEEEYVIRKSTAALEEDAQILKVIEAYCTSANFQQGHGSSTRKDSIPQVLLPEEEKLIIEETRSNGQTIMEEKSLVDTVYALKDEVRELKQENKRMKQCLEEELKSRRDLEKLVRRLLKQTDECIRGESSSKTSILP	0.3284	-0.5743	0.6716	5.099	34.2811
4.5849	Microtubule-associated protein 4: full-length endogenous prey, gene MAP4 (protein, UniProt P27816 1-1152, looked up, full-length, full-length endogenous prey, gene MAP4) MADLSLADALTEPSPDIEGEIKRDFIATLEAEAFDDVVGETVGKTDYIPLLDVDEKTGNSESKKKPCSETSQIEDTPSSKPTLLANGGHGVEGSDTTGSPTEFLEEKMAYQEYPNSQNWPEDTNFCFQPEQVVDPIQTDPFKMYHDDDLADLVFPSSATADTSIFAGQNDPLKDSYGMSPCNTAVVPQGWSVEALNSPHSESFVSPEAVAEPPQPTAVPLELAKEIEMASEERPPAQALEIMMGLKTTDMAPSKETEMALAKDMALATKTEVALAKDMESPTKLDVTLAKDMQPSMESDMALVKDMELPTEKEVALVKDVRWPTETDVSSAKNVVLPTETEVAPAKDVTLLKETERASPIKMDLAPSKDMGPPKENKKETERASPIKMDLAPSKDMGPPKENKIVPAKDLVLLSEIEVAQANDIISSTEISSAEKVALSSETEVALARDMTLPPETNVILTKDKALPLEAEVAPVKDMAQLPETEIAPAKDVAPSTVKEVGLLKDMSPLSETEMALGKDVTPPPETEVVLIKNVCLPPEMEVALTEDQVPALKTEAPLAKDGVLTLANNVTPAKDVPPLSETEATPVPIKDMEIAQTQKGISEDSHLESLQDVGQSAAPTFMISPETVTGTGKKCSLPAEEDSVLEKLGERKPCNSQPSELSSETSGIARPEEGRPVVSGTGNDITTPPNKELPPSPEKKTKPLATTQPAKTSTSKAKTQPTSLPKQPAPTTIGGLNKKPMSLASGLVPAAPPKRPAVASARPSILPSKDVKPKPIADAKAPEKRASPSKPASAPASRSGSKSTQTVAKTTTAAAVASTGPSSRSPSTLLPKKPTAIKTEGKPAEVKKMTAKSVPADLSRPKSTSTSSMKKTTTLSGTAPAAGVVPSRVKATPMPSRPSTTPFIDKKPTSAKPSSTTPRLSRLATNTSAPDLKNVRSKVGSTENIKHQPGGGRAKVEKKTEAAATTRKPESNAVTKTAGPIASAQKQPAGKVQIVSKKVSYSHIQSKCGSKDNIKHVPGGGNVQIQNKKVDISKVSSKCGSKANIKHKPGGGDVKIESQKLNFKEKAQAKVGSLDNVGHLPAGGAVKTEGGGSEAPLCPGPPAGEEPAISEAAPEAGAPTSASGLNGHPTLSGGGDQREAQTLDSQIQETSI	0.2772	-0.4683	0.7228	7.799	222.732
4.725	PTPRCAP: Protein tyrosine phosphatase receptor type C-associated protein (protein, UniProt Q14761 1-206, looked up) Protein tyrosine phosphatase …: MALPCTLGLGMLLALPGALGSGGSAEDSVGSSSVTVVLLLLLLLLLATGLALAWRRLSRDSGGYYHPARLGAALWGRTRRLLWASPPGRWLQARAELGSTDNDLERQEDEQDTDYDHVADGGLQADPGEGEQQCGEASSPEQVPVRAEEARDSDTEGDLVLGSPGPASAGGSAEALLSDLHAFAGSAAWDDSARAAGGQGLHVTAL	0.3458	-0.6123	0.6542	0.5179	1.432
